Assay results taken from paper PMC8691648, “Heterophilic and homophilic cadherin interactions in intestinal intermicrovillar links are species dependent” (PLoS Biology, 2021).

Assays:
[1] = target: mm PCDH24 EC1-2Fc (mouse); experiment: SPR; OpenSPR (Nicoya); mm PCDH24 EC1-2Fc immobilised on a Protein A sensor chip (>800 RU); mm CDHR5 EC1-2 injected at 2 to 23.5 uM; 20 mM Tris HCl pH 7.5, 150 mM NaCl, 50 mM KCl, 2 mM CaCl2, 0.5 mM TCEP, 1% BSA; 20 uL/min; kinetic fit, 1:1 model
[2] = target: the molecule itself; experiment: bead aggregation assay; homophilic; Protein G Dynabeads coated with one Fc fusion captured from concentrated serum-free medium and washed; 50 mM Tris pH 7.5, 100 mM NaCl, 10 mM KCl, 0.2% BSA, 2 mM CaCl2; 60 min on a depression slide, then rocking 1 to 2 min
[3] = target: the molecule itself; experiment: crystal structure; contacts between copies of one fragment in the crystal (asymmetric unit or symmetry mates); vapor diffusion at 4 °C

For mm CDHR5 EC1-2 (domain or fragment), the Kd [1] was 16 µM.

B1: hs PCDH24 EC1-MAD10Fc (Fc fusion, human)
chain: NVAPKFLANMTSVILPEDLPVGAQAFWLVAEDQDNDPLTYGMSGPNAYFFAVTPKTGEVKLASALDYETLYTFKVTISVSDPYIQVQREMLVIVEDRNDNAPVFQNTAFSTSINETLPVGSVVFSVLAVDKDMGSAGMVVYSIEKVIPSTGDSEHLFRILANGSIVLNGSLSYNNKSAFYQLELKACDLGGMYHNTFTIQCSLPVFLSISVVDQPDLDPQFVREFYSASVAEDAAKGTSVLTVEAVDGDKGINDPVIYSISYSTRPGWFDIGADGVIRVNGSLDREQLLEADEEVQLQVTATETHLNIYGQEAKVSIWVTVRVMDVNDHKPEFYNCSLPACTFTPEEAQVNFTGYVDEHASPRIPIDDLTMVVYDPDKGSNGTFLLSLGGPDAEAFSVSPERAVGSASVQVLVRVSALVDYERQTAMAVQVVATDSVSQNFSVAMVTIHLRDINDHRPTFPQSLYVLTVPEHSATGSVVTDSIHATDPDTGAWGQITYSLLPGNGADLFQVDPVSGTVTVRNGELLDRESQAVYYLTLQATDGGNLSSSTTLQIHLLDINDNAPVVSGSYNIFVQEEEGNVSVTIQAHDNDEPGTNNSRLLFNLLPGPYSHNFSLDPDTGLLRNLGPLDREAIDPALEGRIVLTVLVSDCGEPVLGTKVNVTITVEDINDNLPIFNQSSYNFTVKEEDPGVLVGVVKAWDADQTEANNRISFSLSGSGANYFMIRGLVLGAGWAEGYLRLPPDVSLDYETQPVFNLTVSAENPDPQGGETIVDVCVNVKDVNDNPPTLDVASLRGIRVAENGSQHGQVAVVVASDVDTSAQLEIQLVNILCTKAGVDVGSLCWGWFSVAANGSVYINQSKAIDYEACDLVTLVVRACDLATDPGFQAYSNNGSLLITIEDVNDNAPYFLPENKTFVIIPELVLPNREVASVRARDDDSGNNGVILFSILRVDFISKDGATIPFQGVFSIFTSSEADVFAGSIQPVTSLDSTLQGTYQVTVQARDRPSLGPFLEATTTLNLFTVDQSYRSRLQFSTPKEEVGANRQAINAALTQATRTTVYIVDIQDIDSAARARPHSYLDAYFVFPNGSALTLDELSVMIRNDQDSLTQLLQLGLVVLGSQESQESDLSKQLISTVPRARDPPV
notes: protocadherin-24 (PCDH24, also CDHR2), human, full-length extracellular domain EC1 to MAD10; DNA cloned with the signal peptide, protein secreted; numbers count on: the mature protein; linker between the PCDH24 fragment and the Fc tag in the CMV vector; also called Fc-tagged full-length hs PCDH24 extracellular domain; human protocadherin-24; not shown: Fc, C-terminal, kept
B1: binds [2].

B2: hs PCDH24 EC1-2 (mammalian-produced, form II crystal) (domain or fragment, human)
chain: NVAPKFLANMTSVILPEDLPVGAQAFWLVAEDQDNDPLTYGMSGPNAYFFAVTPKTGEVKLASALDYETLYTFKVTISVSDPYIQVQREMLVIVEDRNDNAPVFQNTAFSTSINETLPVGSVVFSVLAVDKDMGSAGMVVYSIEKVIPSTGDSEHLFRILANGSIVLNGSLSYNNKSAFYQLELKACDLGGMYHNTFTIQCSLPVFLSISVVDQPDLDTVPRARDPPVGG
modifications: N-linked glycosylation at N9
notes: protocadherin-24 (PCDH24, also CDHR2), human, repeats EC1-2; DNA cloned with the signal peptide in a CMV vector, protein secreted; the structure includes residues N1 to D218; numbers count on: the mature protein; The range is that of the residues in the structure; The crystallised sample also held mammalian-produced hs CDHR5 EC1-2, which is not in the structure; also called Hs PCDH24 EC1-2 II; …
B2: binds [3].
